Data on one molecule can be found in US20250283063, “NOVEL CRISPR-CAS12I SYSTEMS AND USES THEREOF” (HUIDAGENE THERAPEUTICS (SINGAPORE) PTE. LTD., published 2025).

For one series, the target named is T1, hfCas12Max (v6.3) (N243R,E336R,D892R).
T1 chain: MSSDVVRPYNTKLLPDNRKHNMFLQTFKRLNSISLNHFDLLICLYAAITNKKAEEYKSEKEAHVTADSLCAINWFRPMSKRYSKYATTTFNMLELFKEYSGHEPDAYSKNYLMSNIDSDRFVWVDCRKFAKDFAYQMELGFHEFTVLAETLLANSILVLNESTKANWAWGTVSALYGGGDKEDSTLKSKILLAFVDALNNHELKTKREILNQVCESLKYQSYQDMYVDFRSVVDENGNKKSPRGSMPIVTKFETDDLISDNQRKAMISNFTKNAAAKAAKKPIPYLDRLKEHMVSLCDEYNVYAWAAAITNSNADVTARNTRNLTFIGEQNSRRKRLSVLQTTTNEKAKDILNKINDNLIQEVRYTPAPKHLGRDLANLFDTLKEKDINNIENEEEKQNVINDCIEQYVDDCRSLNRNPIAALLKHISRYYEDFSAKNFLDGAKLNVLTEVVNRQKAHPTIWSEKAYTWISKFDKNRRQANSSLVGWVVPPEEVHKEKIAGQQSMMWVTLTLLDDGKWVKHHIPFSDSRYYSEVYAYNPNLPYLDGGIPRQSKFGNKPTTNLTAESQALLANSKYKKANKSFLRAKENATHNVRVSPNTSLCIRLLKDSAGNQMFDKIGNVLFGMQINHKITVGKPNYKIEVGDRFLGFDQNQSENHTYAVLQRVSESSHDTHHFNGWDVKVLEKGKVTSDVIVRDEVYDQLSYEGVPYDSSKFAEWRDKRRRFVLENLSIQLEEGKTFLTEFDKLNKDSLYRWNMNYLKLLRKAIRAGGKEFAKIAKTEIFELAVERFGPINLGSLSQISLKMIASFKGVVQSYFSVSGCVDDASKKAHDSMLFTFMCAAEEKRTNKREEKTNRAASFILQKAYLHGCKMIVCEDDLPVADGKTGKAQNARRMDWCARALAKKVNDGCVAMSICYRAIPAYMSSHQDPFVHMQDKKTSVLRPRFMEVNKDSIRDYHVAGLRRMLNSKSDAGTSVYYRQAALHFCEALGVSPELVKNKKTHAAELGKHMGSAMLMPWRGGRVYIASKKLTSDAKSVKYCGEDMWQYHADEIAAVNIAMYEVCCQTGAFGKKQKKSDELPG
Put plainly: cell_activity; PAM TTTG; OT-1. To be noted: tags: NLS. As to the method:
(§1) HEK293T cells were cultured in 24-well tissue culture plates according to standard methods for 12 hours, before the reporter and expression plasmids were co-transfected into the cells using standard polyethyleneimine (PEI) transfection. The transfected cells were then cultured at 37° C. under 5% CO₂ for 48 hours. Then the cultured cells were analyzed by flow cytometry for BFP, EGFP, and mCherry fluorescent signals. A “blank” control group was also set up, where only the reporter plasmid was transfected, and no expression plasmid was introduced.
(§2) A dual plasmid fluorescent reporter system for evaluation of off-target dsDNA cleavage activity (off-target reporter system; referring to “Off-Target Reporter” in FIG. 1B) was established, which was similar to the dual plasmid fluorescent reporter system in Example 6 for evaluation of (on-target) dsDNA cleavage activity, except that the insertion sequence of the EGxxxxFP coding sequence contains an TTR off-target protospacer sequence (one of SEQ ID NOs: 127-129) containing one or more mismatches (bold, underlined) with a TTR-targeting spacer sequence (SEQ ID NO: 130) in the gRNA, rather than containing a TTR on-target protospacer sequence (SEQ ID NO: 130; which is the same as SEQ ID NO: 107 in Example 5); DR-T1 sequence (SEQ ID NO: 451) was used. To save drafting, the on-target protospacer sequence/spacer sequence in Table 7 refer to both the protospacer sequence (a DNA sequence) and the corresponding spacer sequence (an RNA sequence) with any “T” in the sequence when referring to a protospacer sequences standing for “T” and when referring to a such spacer sequence standing for “U”, although the assigned SEQ ID NO: 130 in the sequence listing is annotated as DNA.

In the next series the target is T2, xCas12i v6.1 (N243R,E336R,V880R).
T2 chain: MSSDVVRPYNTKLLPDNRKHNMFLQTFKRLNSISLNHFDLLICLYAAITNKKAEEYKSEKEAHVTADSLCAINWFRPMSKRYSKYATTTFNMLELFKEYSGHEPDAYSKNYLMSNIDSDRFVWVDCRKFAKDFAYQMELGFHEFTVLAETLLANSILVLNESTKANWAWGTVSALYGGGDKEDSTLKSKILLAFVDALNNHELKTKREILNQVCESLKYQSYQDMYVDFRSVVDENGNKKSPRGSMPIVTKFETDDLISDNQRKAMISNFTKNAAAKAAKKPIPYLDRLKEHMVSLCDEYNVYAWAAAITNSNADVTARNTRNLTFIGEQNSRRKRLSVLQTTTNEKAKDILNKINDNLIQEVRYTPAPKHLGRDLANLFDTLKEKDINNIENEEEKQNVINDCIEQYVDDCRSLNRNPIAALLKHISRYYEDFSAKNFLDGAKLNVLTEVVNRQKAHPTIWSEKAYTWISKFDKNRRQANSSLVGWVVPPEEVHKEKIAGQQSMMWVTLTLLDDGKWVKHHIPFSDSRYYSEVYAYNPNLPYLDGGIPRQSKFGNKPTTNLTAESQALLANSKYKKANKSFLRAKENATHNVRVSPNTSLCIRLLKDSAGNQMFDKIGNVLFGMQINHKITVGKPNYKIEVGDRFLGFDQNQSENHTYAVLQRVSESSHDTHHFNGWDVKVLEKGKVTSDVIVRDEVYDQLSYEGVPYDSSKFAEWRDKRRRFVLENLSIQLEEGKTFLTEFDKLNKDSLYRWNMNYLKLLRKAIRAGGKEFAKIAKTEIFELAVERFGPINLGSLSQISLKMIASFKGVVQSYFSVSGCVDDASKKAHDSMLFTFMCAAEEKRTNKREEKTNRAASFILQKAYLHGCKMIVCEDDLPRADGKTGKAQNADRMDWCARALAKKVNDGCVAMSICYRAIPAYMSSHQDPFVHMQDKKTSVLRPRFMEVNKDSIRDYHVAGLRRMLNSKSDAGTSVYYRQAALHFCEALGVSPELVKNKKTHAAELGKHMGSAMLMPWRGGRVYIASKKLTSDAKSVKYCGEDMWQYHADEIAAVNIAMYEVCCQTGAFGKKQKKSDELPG
Put plainly: cell_activity; PAM TTTG; OT-1. The conditions noted are these: tags: NLS. The procedure: as §1, §2

B1: TTR.2 crRNA ; TTR OT.1 (ssRNA ; dsDNA)
RNA: AUGACUCAGAAAUGUGUCCCCAGUUGACACUAGAAGGGAUAUACAAAGUGGA
DNA 1: TTTGTAGAAGGGATATAGAAAGTATC
DNA 2: GATACTTTCTATATCCCTTCTACAAA
For B1, the activity is 1.55% with hfCas12Max (v6.3) and 2.04% in the series with xCas12i v6.1.
